In patent publication US20220259281A1:

Molecular target: human CD40 (human) (UniProt P25942)
Test: flow cytometry on PATHHUNTER U2OS-NIK/NFkB reporter cells; isotype control; beside it Unstained 56.7 and hCD40-APC 16805

human CD40 (human), sequence (P25942 21-277): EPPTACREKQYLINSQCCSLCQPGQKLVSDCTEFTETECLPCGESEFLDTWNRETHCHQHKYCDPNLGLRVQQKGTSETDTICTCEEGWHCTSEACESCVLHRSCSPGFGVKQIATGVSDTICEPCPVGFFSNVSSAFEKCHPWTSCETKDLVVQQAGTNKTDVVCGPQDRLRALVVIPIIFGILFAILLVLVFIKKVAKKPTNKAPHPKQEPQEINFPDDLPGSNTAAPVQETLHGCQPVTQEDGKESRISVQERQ

APC Isotype (antibody)
MFI-APC: 2160
